Data: patent US20240132578A1

Columns and labels:
Assay in all cases: cell-based or functional assay
[1] = target: Envelope protein of control pseudovirus MuLV (MuLV)
[2] = target: HIV-1 92RW020 envelope glycoprotein (Env), on pseudovirus (HIV-1 isolate 92RW020 (clade A))
[3] = target: HIV-1 ADA envelope glycoprotein (Env), on pseudovirus (HIV-1 isolate ADA)
[4] = target: HIV-1 Env of pseudovirus AC10 (HIV-1)
[5] = target: HIV-1 Env of pseudovirus CAAN (HIV-1)
[6] = target: HIV-1 Env of pseudovirus CAP45 (HIV-1)
[7] = target: HIV-1 Env of pseudovirus DU156 (HIV-1)
[8] = target: HIV-1 Env of pseudovirus DU422 (HIV-1)
[9] = target: HIV-1 Env of pseudovirus Du172 (HIV-1)
[10] = target: HIV-1 Env of pseudovirus PVO.4 (HIV-1)
[11] = target: HIV-1 Env of pseudovirus REJ04541 (HIV-1)
[12] = target: HIV-1 Env of pseudovirus THRO.18 (HIV-1)
[13] = target: HIV-1 Env of pseudovirus TR0.11 (HIV-1)
[14] = target: HIV-1 Env of pseudovirus ZM214 (HIV-1)
[15] = target: HIV-1 Env of pseudovirus ZM233 (HIV-1)
[16] = target: HIV-1 Env of pseudovirus ZM249 (HIV-1)
[17] = target: HIV-1 JR-FL Env E168K, on pseudovirus (HIV-1 isolate JR-FL (clade B))
[18] = target: HIV-1 Env of isolate 6535.3 (subtype B) (HIV-1)
[19] = target: HIV-1 Env of isolate 92BR020 (subtype B) (HIV-1)
[20] = target: HIV-1 Env of isolate 93TH305 (subtype B) (HIV-1)
[21] = target: HIV-1 Env of isolate APV 13 (subtype B) (HIV-1)
[22] = target: HIV-1 Env of isolate APV 6 (subtype B) (HIV-1)
[23] = target: HIV-1 Env of isolate APV_17 (subtype B) (HIV-1)
[24] = target: HIV-1 Env of isolate MGRM-G-001 (subtype G), on pseudovirus (HIV-1)
[25] = target: HIV-1 Env of isolate MGRM-G-004 (subtype G), on pseudovirus (HIV-1)
[26] = target: HIV-1 Env of isolate MGRM-G-006 (subtype G), on pseudovirus (HIV-1)
[27] = target: HIV-1 Env of isolate MGRM-G-009 (subtype G), on pseudovirus (HIV-1)
[28] = target: HIV-1 Env of isolate MGRM-G-011 (subtype G), on pseudovirus (HIV-1)
[29] = target: HIV-1 Env of isolate MGRM-G-013 (subtype G), on pseudovirus (HIV-1)
[30] = target: HIV-1 Env of isolate MGRM-G-014 (subtype G), on pseudovirus (HIV-1)
[31] = target: HIV-1 Env of isolate MGRM-G-015 (subtype G), on pseudovirus (HIV-1)
[32] = target: HIV-1 Env of isolate MGRM-G-016 (subtype G), on pseudovirus (HIV-1)
[33] = target: HIV-1 Env of isolate MGRM-G-017 (subtype G), on pseudovirus (HIV-1)
[34] = target: HIV-1 Env of isolate MGRM-G-019 (subtype G), on pseudovirus (HIV-1)
[35] = target: HIV-1 Env of isolate MGRM-G-024 (subtype G), on pseudovirus (HIV-1)
[36] = target: HIV-1 Env of isolate MGRM-G-025 (subtype G), on pseudovirus (HIV-1)
[37] = target: HIV-1 Env of isolate MGRM-G-027 (subtype G), on pseudovirus (HIV-1)
[38] = target: HIV-1 Env of isolate MGRM-G-028 (subtype G), on pseudovirus (HIV-1)
[39] = target: aMLV envelope, on pseudovirus (negative control)

Binder	IC50 (µg/mL), pseudovirus neutralization [18]	IC50 (µg/mL), pseudovirus neutralization [19]	IC50 (µg/mL), pseudovirus neutralization [20]	IC50 (µg/mL), pseudovirus neutralization [21]	IC50 (µg/mL), pseudovirus neutralization [22]	IC50 (µg/mL), pseudovirus neutralization [23]	IC50 (µg/mL), neutralization of pseudovirus [24]	IC50 (µg/mL), neutralization of pseudovirus [25]	IC50 (µg/mL), neutralization of pseudovirus [26]	IC50 (µg/mL), neutralization of pseudovirus [27]	IC50 (µg/mL), neutralization of pseudovirus [28]	IC50 (µg/mL), neutralization of pseudovirus [29]	IC50 (µg/mL), neutralization of pseudovirus [30]	IC50 (µg/mL), neutralization of pseudovirus [31]	IC50 (µg/mL), neutralization of pseudovirus [32]	IC50 (µg/mL), neutralization of pseudovirus [33]	IC50 (µg/mL), neutralization of pseudovirus [34]	IC50 (µg/mL), neutralization of pseudovirus [35]	IC50 (µg/mL), neutralization of pseudovirus [36]	IC50 (µg/mL), neutralization of pseudovirus [37]	also measured
1503_H05 (PG16) (TCN-119) (antibody, V domains shown) VH: QEKLVESGGGVVQPGGSLRLSCLASGFTFHKYGMHWVRQAPGKGLEWVALISDDGMRKYHSDSMWGRVTISRDNSKNTLYLQFSSLKVEDTAMFFCAREAGGPIWHDDVKYYDFNDGYYNYHYMDVWGKGTIVTVSS VL: QSALTQPASVSGSPGQTITISCNGTRSDVGGFDSVSWYQQSPGKAPKVMVFDVSHRPSGISNRFSGSKSGNTASLTISGLHIEDEGDYFCSSLTDRSHRIFGGGTKVTVLG																					IC50, pseudovirus neutralization (TZM-bl assay), control virus [1]: > 25 µg/mL; IC50 (ug/ml), pseudovirus neutralization, TZM-bl assay [2]: 0.02 µg/mL; IC50 (ug/ml), pseudovirus neutralization, TZM-bl assay [3]: 0.003 µg/mL; IC50, pseudovirus neutralization (TZM-bl assay) [4]: < 0.01 µg/mL; IC50, pseudovirus neutralization (TZM-bl assay) [5]: 13.5 µg/mL; IC50, pseudovirus neutralization (TZM-bl assay) [6]: < 0.01 µg/mL; IC50, pseudovirus neutralization (TZM-bl assay) [7]: < 0.01 µg/mL; IC50, pseudovirus neutralization (TZM-bl assay) [8]: 0.71 µg/mL; IC50, pseudovirus neutralization (TZM-bl assay) [9]: < 0.01 µg/mL; IC50, pseudovirus neutralization (TZM-bl assay) [10]: 11 µg/mL; IC50, pseudovirus neutralization (TZM-bl assay) [11]: 0.22 µg/mL; IC50, pseudovirus neutralization (TZM-bl assay) [12]: 4.12 µg/mL; IC50, pseudovirus neutralization (TZM-bl assay) [13]: 4.3 µg/mL; IC50, pseudovirus neutralization (TZM-bl assay) [14]: > 25 µg/mL; IC50, pseudovirus neutralization (TZM-bl assay) [15]: < 0.01 µg/mL; IC50, pseudovirus neutralization (TZM-bl assay) [16]: < 0.01 µg/mL; IC50 (ug/ml), pseudovirus neutralization, TZM-bl assay [17]: 0.002 µg/mL
1456_A12 (PG16) (TCN-117) (antibody, V domains shown) VH: HEQLVEAGGGVVQPGGSLRLSCLASGFTFHKYGMHWVRQAPGKGLEWVALISDDGMRKYHSDSMWGRVTISRDNSKNTLYLQFSSLRVEDTAMFFCAREAGGPIWHDDVKYYDFNDGYYNYHYMDVWGKGTKVTVSS VL: QSALTQPASVSGSPGQTITISCNGTSRDVGGFDSVSWYQQSPGKAPKVMVFDVSHRPSGMSNRFSGSKSGNTASLTISGLHIEDEGDYFCSSLTDRSHRIFGGGTKLTVLG																					IC50, pseudovirus neutralization (TZM-bl assay), control virus [1]: > 25 µg/mL; IC50 (ug/ml), pseudovirus neutralization, TZM-bl assay [2]: 0.05 µg/mL; IC50 (ug/ml), pseudovirus neutralization, TZM-bl assay [3]: 0.005 µg/mL; IC50, pseudovirus neutralization (TZM-bl assay) [4]: < 0.01 µg/mL; IC50, pseudovirus neutralization (TZM-bl assay) [5]: 10.6 µg/mL; IC50, pseudovirus neutralization (TZM-bl assay) [6]: < 0.01 µg/mL; IC50, pseudovirus neutralization (TZM-bl assay) [7]: < 0.01 µg/mL; IC50, pseudovirus neutralization (TZM-bl assay) [8]: 0.36 µg/mL; IC50, pseudovirus neutralization (TZM-bl assay) [9]: < 0.01 µg/mL; IC50, pseudovirus neutralization (TZM-bl assay) [10]: 10.4 µg/mL; IC50, pseudovirus neutralization (TZM-bl assay) [11]: < 0.01 µg/mL; IC50, pseudovirus neutralization (TZM-bl assay) [12]: 2.08 µg/mL; IC50, pseudovirus neutralization (TZM-bl assay) [13]: 3.05 µg/mL; IC50, pseudovirus neutralization (TZM-bl assay) [14]: > 25 µg/mL; IC50, pseudovirus neutralization (TZM-bl assay) [15]: < 0.01 µg/mL; IC50, pseudovirus neutralization (TZM-bl assay) [16]: < 0.01 µg/mL; IC50 (ug/ml), pseudovirus neutralization, TZM-bl assay [17]: 0.003 µg/mL
PGT-131 (antibody, V domains shown) VH: QVQLQESGPGLVKPSETLSLTCTVSGDSINTGHHYWGWVRQVPGKGPEWIAHIHYNTAVLHNPALKSRVTISIFTLKNLITLSLSNVTAADTAVYFCVRSGGDILYYIEWQKPHWFYPWGPGILVTVSS VL: QSALTQPPSASGSLGQSLTISCSGTGSDIGSWNFVSWYQQFPGRAPNLIIFEVNRRRSGVPDRFSGSKSGNTASLTVSGLRSEDEAEYFCSSLSGRWDIVFGGGTKVTVL	0.056 µg/mL	6.16 µg/mL	0.016 µg/mL	0.189 µg/mL	> 50 µg/mL	> 50 µg/mL	0.404 µg/mL	> 50 µg/mL	> 50 µg/mL	> 50 µg/mL	> 50 µg/mL	> 50 µg/mL	4.31 µg/mL	> 50 µg/mL	> 50 µg/mL	> 50 µg/mL	> 50 µg/mL	10.7 µg/mL	7.75 µg/mL	2.9 µg/mL	IC50 (µg/mL), neutralization of pseudovirus [38]: 0.466 µg/mL; IC50 (µg/mL), neutralization of pseudovirus [39]: > 50 µg/mL
PGT-136 (antibody, V domains shown) VH: QLQLQESGPGLVKPSETLSLTCTVSGGSMRGTDWGENDFHYGWIRQSSAKGLEWIGSIHWRGRTTHYKTSFRSRATLSIDTSNNRFSLTFSFVTAADTAVYYCARHKYHDIFRVVPVAGWFDPWGQGLLVTVSS VL: EIVMTQSPPTLSVSPGETATLSCRASQNVKNNLAWYQLKPGQAPRLLIFDASSRAGGIPDRFSGSGYGTDFTLTVNSVQSEDFGDYFCQQYEEWPRTFGQGTKVDIK	> 50 µg/mL	8.61 µg/mL	20.2 µg/mL	> 50 µg/mL	> 50 µg/mL	> 50 µg/mL	8.11 µg/mL	> 50 µg/mL	> 50 µg/mL	> 50 µg/mL	> 50 µg/mL	> 50 µg/mL	> 50 µg/mL	> 50 µg/mL	> 50 µg/mL	> 50 µg/mL	44.3 µg/mL	0.152 µg/mL	> 50 µg/mL	45.2 µg/mL	IC50 (µg/mL), neutralization of pseudovirus [38]: > 50 µg/mL; IC50 (µg/mL), neutralization of pseudovirus [39]: > 50 µg/mL
PGT-137 (antibody, V domains shown) VH: EVHLEESGPGLVRPSETLSLTCTASGGSIRGGEWGDSDYHWGWVRHSPEKGLEWIGSIHWRGTTHYNAPFRGRGRLSIDLSRNQFSLRLTSVTAEDTAVYYCVKHKYHDIVMVVPIAGWFDPWGQGLQVTVSS VL: EIMMTQSPAILSVSPGDRATLSCRASQSVKNNLAWYQKRPGQAPRLLIFDTSSRASGIPARFSGGGSGTEFTLTVNSMQSEDFATYYCQQYEEWPRTFGQGTKVEIK	> 50 µg/mL	7.81 µg/mL	> 50 µg/mL	> 50 µg/mL	> 50 µg/mL	> 50 µg/mL	41.7 µg/mL	> 50 µg/mL	> 50 µg/mL	> 50 µg/mL	> 50 µg/mL	> 50 µg/mL	> 50 µg/mL	> 50 µg/mL	> 50 µg/mL	34.9 µg/mL	0.126 µg/mL	0.051 µg/mL	> 50 µg/mL	0.228 µg/mL	IC50 (µg/mL), neutralization of pseudovirus [38]: > 50 µg/mL; IC50 (µg/mL), neutralization of pseudovirus [39]: > 50 µg/mL
